Data as given in US11833164B2, “Methods of treating Fabry disease in patients having a mutation in the GLA gene” (Amicus Therapeutics, Inc., priority 2019, dated 2023).
Substitutions are numbered along the chain they refer to. Numbers in names are those of the source.

B1: S188T (protein)
chain: MQLRNPELHLGCALALRFLALVSWDIPGARALDNGLARTPTMGWLHWERFMCNLDCQEEPDSCISEKLFMEMAELMVSEGWKDAGYEYLCIDDCWMAPQRDSEGRLQADPQRFPHGIRQLANYVHSKGLKLGIYADVGNKTCAGFPGSFGYYDIDAQTFADWGVDLLKFDGCYCDSLENLADGYKHMTLALNRTGRSIVYSCEWPLYMWPFQKPNYTEIRQYCNHWRNFADIDDSWKSIKSILDWTSFNQERIVDVAGPGGWNDPDMLVIGNFGLSWNQQVTQMALWAIMAAPLFMSNDLRHISPQAKALLQDKDVIAINQDPLGKQGYQLRQGDNFEVWERPLSGLAWAVAMINRQEIGGPRSYTIAVASLGKGVACNPACFITQLLPVKRKLGFYEWTSRLRSHINPTGTVLLQLENTMQMSLKDLL
B2: N192H (protein)
chain: B1 chain with T188S, N192H
B3: I289L (protein)
chain: B1 chain with T188S, I289L
B4: S188Y (protein)
chain: B1 chain with T188Y
B5: A288G (protein)
chain: B1 chain with T188S, A288G
B6: A190V (protein)
chain: B1 chain with T188S, A190V
B7: A288V (protein)
chain: B1 chain with T188S, A288V
B8: L286F (protein)
chain: B1 chain with T188S, L286F
B9: A288S (protein)
chain: B1 chain with T188S, A288S
B10: A190T (protein)
chain: B1 chain with T188S, A190T
B11: N192D (protein)
chain: B1 chain with T188S, N192D
B12: A190G (protein)
chain: B1 chain with T188S, A190G
B13: I289T (protein)
chain: B1 chain with T188S, I289T
B14: A190D (protein)
chain: B1 chain with T188S, A190D
B15: L191V (protein)
chain: B1 chain with T188S, L191V
B16: L189V (protein)
chain: B1 chain with T188S, L189V
B17: A190S (protein)
chain: B1 chain with T188S, A190S
B18: L189S (protein)
chain: B1 chain with T188S, L189S
B19: L191M (protein)
chain: B1 chain with T188S, L191M
B20: L286V (protein)
chain: B1 chain with T188S, L286V
B21: L286H (protein)
chain: B1 chain with T188S, L286H

Each molecule was assayed on mutant form of α-Gal A expressed in HEK-293 cells (assay: HEK assay (GLP HEK / Migalastat Amenability Assay): α-Gal A activity in lysates of transiently transfected HEK-293 cells incubated with or without 10 μM migalastat). Conditions: 10 μM migalastat versus baseline.
Type: cell-based, human
In short: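 Activity reported as 4-MU released (nmol/mg/hr), mean±SEM, from lysates of transiently transfected HEK-293 cells expressing mutant α-Gal A, cultured with or without 10 μM migalastat.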

Row | Molecule | Absolute increase (% WT) | Relative increase
1 | B1 | 24.0 % WT | –
2 | B2 | 16.4 % WT | –
3 | B3 | 27.5 % WT | 1.3
4 | B4 | 31.5 % WT | –
5 | B5 | 19.9 % WT | 1.4
6 | B6 | 41.2 % WT | –
7 | B7 | 31.7 % WT | 1.4
8 | B8 | 23.2 % WT | 1.4
9 | B9 | 25.8 % WT | 1.2
10 | B10 | 30.7 % WT | –
11 | B11 | 55.6 % WT | –
12 | B12 | 27.4 % WT | –
13 | B13 | 36.7 % WT | 2.0
14 | B14 | 26.9 % WT | –
15 | B15 | 39.1 % WT | –
16 | B16 | 20.2 % WT | –
17 | B17 | 26.1 % WT | –
18 | B18 | 20.1 % WT | –
19 | B19 | 41.7 % WT | –
20 | B20 | 32.9 % WT | 1.4
21 | B21 | 15.4 % WT | 22.2

Same assay, conditions: 10 μM migalastat α-Gal A activity relative to baseline

Row | Molecule | Relative increase
22 | B1 | 1.5
23 | B2 | 2.8
24 | B4 | 2.0
25 | B6 | 2.2
26 | B10 | 2.1
27 | B11 | 3.2
28 | B12 | 1.4
29 | B14 | 2.2
30 | B15 | 1.6
31 | B16 | 1.3
32 | B17 | 1.3
33 | B18 | 1.3
34 | B19 | 1.8

Same assay, conditions: 10 μM migalastat, 5 days; percentage of baseline wild-type α-Gal A activity; mean ± SEM

Row | Molecule | 10 μM migalastat α-Gal A activity (% WT)
35 | B1 | 69.5 ± 4.5 % WT
36 | B2 | 24.9 ± 3 % WT
37 | B4 | 64.1 ± 3.5 % WT
38 | B6 | 77.9 ± 9.5 % WT
39 | B10 | 57 ± 1.9 % WT
40 | B11 | 81.5 ± 6.7 % WT
41 | B12 | 97.9 ± 9.8 % WT
42 | B14 | 49 ± 3.4 % WT
43 | B15 | 110.2 ± 7.9 % WT
44 | B16 | 100.1 ± 3.9 % WT
45 | B17 | 110.6 ± 5.5 % WT
46 | B18 | 92.7 ± 3.2 % WT
47 | B19 | 100.2 ± 9.8 % WT

Same assay, conditions: absence of migalastat; percentage of baseline wild-type α-Gal A activity; mean ± SEM

Row | Molecule | Baseline α-Gal A activity (% WT)
48 | B1 | 45.4 ± 2.5 % WT
49 | B2 | 8.6 ± 1.1 % WT
50 | B3 | 96.9 ± 10.5 % WT
51 | B4 | 32.6 ± 2.6 % WT
52 | B5 | 56.8 ± 6.3 % WT
53 | B6 | 36.8 ± 5.1 % WT
54 | B7 | 82.5 ± 9 % WT
55 | B8 | 64.5 ± 2.8 % WT
56 | B9 | 114.6 ± 10.6 % WT
57 | B10 | 26.3 ± 2 % WT
58 | B11 | 25.9 ± 3 % WT
59 | B12 | 70.5 ± 7.3 % WT
60 | B13 | 38.6 ± 4.8 % WT
61 | B14 | 22.1 ± 1 % WT
62 | B15 | 71.1 ± 4.7 % WT
63 | B16 | 79.9 ± 5.1 % WT
64 | B17 | 84.5 ± 3.2 % WT
65 | B18 | 72.6 ± 3.1 % WT
66 | B19 | 58.4 ± 6.6 % WT
67 | B20 | 66 ± 5.1 % WT
68 | B21 | 0.8 ± 0.1 % WT

Same assay, conditions: lysates of HEK-293 cells transfected with the mutant form, incubated 5 days in the absence of migalastat; mean ± SEM

Row | Molecule | Baseline α-Gal A activity
69 | B1 | 17041 ± 1389 nmol/mg/h
70 | B2 | 3103 ± 402 nmol/mg/h
71 | B4 | 12244 ± 1167 nmol/mg/h
72 | B6 | 12542 ± 1642 nmol/mg/h
73 | B10 | 8600 ± 733 nmol/mg/h
74 | B11 | 9035 ± 886 nmol/mg/h
75 | B12 | 24299 ± 2173 nmol/mg/h
76 | B14 | 7141 ± 423 nmol/mg/h
77 | B15 | 24068 ± 1533 nmol/mg/h
78 | B16 | 25544 ± 1758 nmol/mg/h
79 | B17 | 27316 ± 1369 nmol/mg/h
80 | B18 | 23204 ± 1213 nmol/mg/h
81 | B19 | 19968 ± 2010 nmol/mg/h

Same assay, conditions: lysates of HEK-293 cells transfected with the mutant form, incubated 5 days with 10 μM migalastat; mean ± SEM

Row | Molecule | 10 μM migalastat α-Gal A activity
82 | B1 | 26198 ± 2461 nmol/mg/h
83 | B2 | 8765 ± 935 nmol/mg/h
84 | B4 | 23849 ± 1725 nmol/mg/h
85 | B6 | 27078 ± 2910 nmol/mg/h
86 | B10 | 18373 ± 795 nmol/mg/h
87 | B11 | 28923 ± 1892 nmol/mg/h
88 | B12 | 34126 ± 2992 nmol/mg/h
89 | B14 | 15887 ± 1308 nmol/mg/h
90 | B15 | 37342 ± 2569 nmol/mg/h
91 | B16 | 32031 ± 1633 nmol/mg/h
92 | B17 | 35787 ± 2235 nmol/mg/h
93 | B18 | 29510 ± 1181 nmol/mg/h
94 | B19 | 34977 ± 3072 nmol/mg/h

Same assay, conditions: lysates of HEK-293 cells transiently transfected with the mutant form, incubated 5 days in absence of migalastat; mean ± SEM

Row | Molecule | Baseline α-Gal A activity
95 | B3 | 37941 ± 3208 nmol/mg/h
96 | B5 | 22208 ± 1755 nmol/mg/h
97 | B7 | 32777 ± 3168 nmol/mg/h
98 | B8 | 29390 ± 1225 nmol/mg/h
99 | B9 | 45790 ± 3395 nmol/mg/h
100 | B13 | 15033 ± 1450 nmol/mg/h
101 | B20 | 28713 ± 3734 nmol/mg/h
102 | B21 | 359 ± 52 nmol/mg/h

Same assay, conditions: lysates of HEK-293 cells transiently transfected with the mutant form, incubated 5 days with 10 μM migalastat; mean ± SEM

Row | Molecule | 10 μM migalastat α-Gal A activity
103 | B3 | 49640 ± 3368 nmol/mg/h
104 | B5 | 30458 ± 2381 nmol/mg/h
105 | B7 | 45501 ± 4634 nmol/mg/h
106 | B8 | 39732 ± 2859 nmol/mg/h
107 | B9 | 55988 ± 2609 nmol/mg/h
108 | B13 | 29673 ± 2480 nmol/mg/h
109 | B20 | 41335 ± 3422 nmol/mg/h
110 | B21 | 7960 ± 1511 nmol/mg/h

Same assay, conditions: with 10 μM migalastat, 5 days; percentage of baseline wild-type α-Gal A activity; mean ± SEM

Row | Molecule | 10 μM migalastat α-Gal A activity (% WT)
111 | B3 | 124.4 ± 11.3 % WT
112 | B5 | 76.7 ± 7.4 % WT
113 | B7 | 114.2 ± 12.4 % WT
114 | B8 | 87.7 ± 7.3 % WT
115 | B9 | 140.4 ± 10.5 % WT
116 | B13 | 75.3 ± 7.9 % WT
117 | B20 | 98.9 ± 4.3 % WT
118 | B21 | 16.2 ± 2.5 % WT
